The target in the test is T1, endogenous VDAC2 (voltage-dependent anion-selective channel protein 2) (human (endogenous in HONE1 and SUNE1)), P45880.
T1 chain: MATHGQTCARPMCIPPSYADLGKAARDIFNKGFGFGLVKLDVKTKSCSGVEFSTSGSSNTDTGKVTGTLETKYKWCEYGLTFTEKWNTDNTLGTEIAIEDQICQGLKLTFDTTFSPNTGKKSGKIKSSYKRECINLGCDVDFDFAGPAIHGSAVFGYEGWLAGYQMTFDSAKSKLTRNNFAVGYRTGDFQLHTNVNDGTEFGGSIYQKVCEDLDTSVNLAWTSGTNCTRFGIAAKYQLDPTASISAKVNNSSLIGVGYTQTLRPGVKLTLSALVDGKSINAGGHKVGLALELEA
As to the kind of experiment: cross-linking; NPC cells in PBS with 5 mM DSS, 37 °C, 30 min, quenched with 20 mM Tris-HCl; Western blot; 24 h after IR; WT and TRIM21-KO cells. The settings on record: remark: other sources report otherwise. (In general: In western blotting, separated proteins are transferred to a membrane and probed.)

B1: endogenous VDAC2 (voltage-dependent anion-selective channel protein 2), P45880 1-294 (natural protein)
chain: T1 chain
A word on the stoichiometry N: it is the number of molecules, sites or subunits per partner or assembly. On to B1, for which the stoichiometry N is > 3.
